Results published in article PMC7926622, “Structure–Function Relationship Study of a Secretory Amoebic Phosphatase: A Computational-Experimental Approach” (International Journal of Molecular Sciences, 2021).

System: O=P(O)(O)OP(=O)(O)O
Assay: purified protein
Settings: pH 9.0 (100 mM Tris-HCl; optimum pH), 5 mM MgSO4, 37 °C, 0.1 µM enzyme
Excerpt: malachite green phosphate release, Michaelis-Menten fit on rEhHAPp49

Substance: rEhHAPp49 (Entamoeba histolytica HM-1:IMSS)
- Km: 12 ± 2 µM
- kcat: 0.177 ± 0.00333 s⁻¹
- kcat/Km: 14700 M⁻¹ s⁻¹
